First the molecules themselves.
B1: ϕC31 integrase ΔNTD (residues 1–140 deleted) (domain or fragment, Streptomyces phage ϕC31, UniProt Q9T221 141-605, looked up)
chain: ASHKESSLKSAKILDTKNLQRELGGYVGGKAPYGFELVSETKEITRNGRMVNVVINKLAHSTTPLTGPFEFEPDVIRWWWREIKTHKHLPFKPGSQAAIHPGSITGLCKRMDADAVPTRGETIGKKTASSAWDPATVMRILRDPRIAGFAAEVIYKKKPDGTPTTKIEGYRIQRDPITLRPVELDCGPIIEPAEWYELQAWLDGRGRGKGLSRGQAILSAMDKLYCECGAVMTSKRGEESIKDSYRCRRRKVVDPSAPGQHEGTCNVSMAALDKFVAERIFNKIRHAEGDEETLALLWEAARRFGKLTEAPEKSGERANLVAERADALNALEELYEDRAAGAYDGPVGRKHFRKQQAALTLRQQGAEERLAELEAAEAPKLPLDQWFPEDADADPTGPKSWWGRASVDDKRVFVGLFVDKIVVTKSTTGRGQGTPIEKRASITWAKPPTDDDEDDAQDGTEDVAA
notes: ϕC31 integrase, UniProt Q9T221, residues 1–140 deleted from the 605-amino acid chain; source: E. coli BL21 (DE3) LOBSTR, pET28a, purified (HisTrap Ni-NTA, Superose 6 SEC)
B2: ϕC31 Recombination Directionality Factor (RDF), gp3 (natural protein, Streptomyces phage ϕC31, UniProt Q9T216 1-244, looked up)
chain: MAKRSIWAGDEDNKPKKRETYADDTVGRFHSGYSETNERGKVVPVALDKWRISTGEQSVADAVAQLFGGTPVENEESTSENFIDVFTDRPKVPVIIEADGIHWDMKLWLNGKLKHHCDGFDFVSHADEEMIGQPCGCPKLFDERKAAAKEYDAPNPAITVTFTLADDPELGRFKFQTGSWTLFKVLHEAEDDVERVGKGGAVLANLELELVEYTPKRGPMRNKLVSYYKPTITVLKSYNDAIAD
notes: RDF gp3 protein of Streptomyces phage ϕC31, UniProt Q9T216; residues 23–239 were modelled in the cryo-EM structure; In the excisive synaptic complex structure the RDF stood as the C-terminal part of the fusion protein m9, not as the separate His-tagged protein; source: E. coli BL21 (DE3) LOBSTR, pET28a, purified (HisTrap Ni-NTA, Superdex 200 SEC)
B3: ϕC31 integrase S12A (cleavage-deficient mutant, full length) (enzyme, Streptomyces phage ϕC31, UniProt Q9T221 1-605, looked up)
chain: MDTYAGAYDRQARERENSSAASPATQRSANEDKAADLQREVERDGGRFRFVGHFSEAPGTSAFGTAERPEFERILNECRAGRLNMIIVYDVSRFSRLKVMDAIPIVSELLALGVTIVSTQEGVFRQGNVMDLIHLIMRLDASHKESSLKSAKILDTKNLQRELGGYVGGKAPYGFELVSETKEITRNGRMVNVVINKLAHSTTPLTGPFEFEPDVIRWWWREIKTHKHLPFKPGSQAAIHPGSITGLCKRMDADAVPTRGETIGKKTASSAWDPATVMRILRDPRIAGFAAEVIYKKKPDGTPTTKIEGYRIQRDPITLRPVELDCGPIIEPAEWYELQAWLDGRGRGKGLSRGQAILSAMDKLYCECGAVMTSKRGEESIKDSYRCRRRKVVDPSAPGQHEGTCNVSMAALDKFVAERIFNKIRHAEGDEETLALLWEAARRFGKLTEAPEKSGERANLVAERADALNALEELYEDRAAGAYDGPVGRKHFRKQQAALTLRQQGAEERLAELEAAEAPKLPLDQWFPEDADADPTGPKSWWGRASVDDKRVFVGLFVDKIVVTKSTTGRGQGTPIEKRASITWAKPPTDDDEDDAQDGTEDVAA
notes: ϕC31 integrase, Streptomyces phage ϕC31, UniProt Q9T221, 605-amino acid polypeptide chain, with S12A; also called full-length S12A integrase; source: E. coli BL21 (DE3) LOBSTR, pET28a, purified (HisTrap Ni-NTA, Superose 6 SEC)
B4: ϕC31 integrase (wild type) (enzyme, Streptomyces phage ϕC31, UniProt Q9T221 1-605, looked up)
chain: B3 chain with A12S
notes: ϕC31 integrase, Streptomyces phage ϕC31, UniProt Q9T221, 605-amino acid polypeptide chain; Used only for the integrase–attL cryo-EM complex (dimer on attL60 DNA); also called WT integrase; source: E. coli BL21 (DE3) LOBSTR, pET28a, purified (HisTrap Ni-NTA, Superose 6 SEC)
B5: ϕC31 integrase S12A/E449K (enzyme, Streptomyces phage ϕC31, UniProt Q9T221 1-605, looked up)
chain: B3 chain with E449K
notes: ϕC31 integrase, UniProt Q9T221, with S12A and E449K; also called S12A/E449K double mutant; source: E. coli BL21 (DE3) LOBSTR, pET28a, purified (HisTrap Ni-NTA, Superose 6 SEC)

Series [1] deals with the molecule itself. Description: SEC-MALS; SEC-MALLS of equal amounts of purified integrase–attB and integrase–attP complexes mixed; step: two dimer–att complexes to the tetramer–attB–attP synaptic complex; Superose 6 increase 10/300, 20 mM HEPES pH 7.4, 150 mM NaCl, 2 mM MgCl2, 0.1 mM TCEP, 25 °C. A general note: In gel filtration, larger molecules generally elute earlier.
Series [2] addresses B3. Put plainly: SEC-MALS; SEC-MALLS with SDS-PAGE of the peaks: pre-formed integrase S12A–attB–attP synaptic complex mixed with RDF at 1:3 integrase:RDF molar ratio, 5 min room temperature; Superose 6 increase 10/300, 20 mM HEPES pH 7.4, 150 mM NaCl, 2 mM MgCl2, 0.1 mM TCEP, 25 °C. The conditions noted are these: both partners purified.
Series [3] deals with the molecule itself. Description: cryo-EM structure; WT integrase–attL60 dimer complex, without RDF; 20 mM HEPES pH 7.4, 150 mM NaCl, 2 mM MgCl2, 0.1 mM TCEP; 0.4 mg/ml.
Series [4] deals with the molecule itself. Description: SEC-MALS; SEC-MALLS of integrase–attL complexes, without RDF; step: dimer–attL to attL–attL synaptic complex; Superose 6 increase 10/300, 20 mM HEPES pH 7.4, 150 mM NaCl, 2 mM MgCl2, 0.1 mM TCEP, 25 °C.

Substitutions are numbered along the chain they refer to. Names and notes keep the numbering of the source.

As to B1, the binding result in series [1] is listed as “binds”.
For B2, the binding result in series [2] is “binds”.
As for B3, the “stoichiometry N” value in series [1] turned out to be 4.
Take B4: the binding result in series [3] is “binds”.
On to B5, for which the binding result in series [4] is given as “binds”.

For orientation: stoichiometry N means the number of molecules, sites or subunits per partner or assembly.
